Measured values as given in US20200071378A1 (SHATTUCK LABS, published 2020).
Each block holds one binder with its values, some of them ahead of it.

Key:
[1] = molecular target: T1, recombinant murine OX40-His (murine, UniProt P47741 20-211, limits assumed); experiment: biolayer interferometry, 'Octet Binding Affinities, Ligand: mouse OX40-His'; penta-His biosensors; Example 11 calls it SPR
T1 construct: Coated on penta-his biosensors; also called mOX40
T1 sequence (looked up): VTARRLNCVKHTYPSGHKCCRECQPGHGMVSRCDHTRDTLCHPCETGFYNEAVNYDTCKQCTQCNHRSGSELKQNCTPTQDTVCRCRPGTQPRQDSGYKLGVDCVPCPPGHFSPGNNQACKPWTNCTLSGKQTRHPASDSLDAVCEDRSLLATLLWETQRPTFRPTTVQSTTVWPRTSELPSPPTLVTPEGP

[2] = molecular target: T2, human OX40 expressed on cells (Jurkat/hOX40) (human, UniProt P43489 29-277); experiment: flow cytometry on Jurkat/hOX40 cells
T2 construct: whole, on cells; also called Jurkat cells engineered to overexpress human OX40; OX40 present on the cell surface
T2 sequence (looked up): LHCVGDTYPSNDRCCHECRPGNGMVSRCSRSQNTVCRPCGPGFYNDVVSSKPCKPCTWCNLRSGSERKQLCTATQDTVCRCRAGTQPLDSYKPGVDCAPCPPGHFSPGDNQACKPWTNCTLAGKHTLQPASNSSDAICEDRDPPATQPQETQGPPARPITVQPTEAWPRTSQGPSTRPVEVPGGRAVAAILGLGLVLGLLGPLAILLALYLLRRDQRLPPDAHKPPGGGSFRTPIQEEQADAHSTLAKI
Method: For cell binding assays, immortalized cell lines were engineered to stably express human OX40 (Jurkat/hOX40). Increasing concentrations of the VSIG8-Fc-OX40L chimeric protein were incubated with the over-expressing (Jurkat/hOX40) cell line for two hours. Cells were collected, washed, and stained with antibodies for the detection of chimeric protein binding by flow cytometry.

hOX40-His [3] = molecular target: T3, hOX40-His (human, UniProt P43489 29-216, limits assumed); experiment: SPR/Octet kinetics on hOX40-His, against the control Fc-OX40L
T3 construct: also called human OX40
T3 sequence (looked up): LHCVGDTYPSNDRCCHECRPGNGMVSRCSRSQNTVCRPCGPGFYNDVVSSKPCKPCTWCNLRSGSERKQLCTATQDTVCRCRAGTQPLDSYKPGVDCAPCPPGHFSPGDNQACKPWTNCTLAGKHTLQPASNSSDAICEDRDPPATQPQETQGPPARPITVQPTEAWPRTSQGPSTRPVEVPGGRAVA

hOX40-His [4] = molecular target: T3, hOX40-His; experiment: SPR (BioRad ProteOn XPR 360) per Example 5; FIG. 5 legend says biolayer interferometry (Octet); hOX40-His as ligand, analyte at 117.6 nM
human IgG (plate-bound) = molecular target: T4, human IgG (plate-bound); experiment: ELISA, left panel; sheet header 'IgG ELISA, H&L Capture, Fc-HRP Detect'; paragraph 219: capture on plate-bound human IgG, detection with HRP-conjugated anti-human IgG antibody
T4 construct: Capture reagent as printed; It may in fact be an anti-human IgG antibody; also called hIgG
From the text: Specifically, the Fc portion of the chimeric protein was detected by capturing to a plate-bound human IgG and detecting via an HRP-conjugated anti-human IgG antibody (left panel of FIG. 3). The OX40 domain of the chimeric protein was detected by capturing to a plate-bound recombinant human OX40 protein and detecting via an anti-OX40-specific antibody (right panel of FIG. 3). It was observed that in ELISA assays, using the central Fc region to detect chimeric proteins tended to underestimate the actual protein content in a sample. Therefore, low level of the hVSIG8-Fc-OX40L chimeric protein was detected compared to standard in this assay.

hOX40-His [5] = molecular target: T3, hOX40-His; experiment: SPR (BioRad ProteOn XPR 360) per Example 5; FIG. 5 legend says biolayer interferometry (Octet); hOX40-His as ligand, analyte at 222.2 nM

binding result [1]: binds
B1: commercially-available mFc-OX40L (Fc fusion, murine, UniProt P43488 51-198, looked up)
chain: SSSPAKDPPIQRLRGAVTRCEDGQLFISSYKNEYQTMEVQNNSVVIKCDGLYIIYLKGSFFQEVKIDLHFREDHNPISIPMLNDGRRIVFTVVASLAFKDKVYLTVNAPDTLCEHLQINDGELIVVQLTPGYCAPEGSYHSTVNQVPL
notes: Bought control; Construct is not described; also called commercially-available recombinant control protein; not shown: Fc part of a bought control protein, not described

EC50 [2]: ~30 nM
fold slower off-rate than the Fc-OX40L protein (hOX40-His [3]): 10 fold
Kd (hOX40-His [4]): 0.767 nM
koff (hOX40-His [4]): 0.000254 s⁻¹
kon (hOX40-His [4]): 331000 M⁻¹ s⁻¹
EC50 (read off the curve) (human IgG (plate-bound)): ~6 nM
B2: human VSIG8-Fc-OX40L chimeric protein (Fc fusion)
chain: VRINGDGQEVLYLAEGDNVRLGCPYVLDPEDYGPNGLDIEWMQVNSDPAHHRENVFLSYQDKRINHGSLPHLQQRVRFAASDPSQYDASINLMNLQVSDTATYECRVKKTTMATRKVIVTVQARPAVPMCWTEGHMTYGNDVVLKCYASGGSQPLSYKWAKISGHHYPYRAGSYTSQHSYHSELSYQESFHSSINQGLNNGDLVLKDISRADDGLYQCTVANNVGYSVCVVEVKVSDSRRIGCPPCPAPEFLGGPSVFLFPPKPKDQLMISRTPEVTCVVVDVSQEDPEVQFNWYVDGVEVHNAKTKPREEQFNSTYRVVSVLTVLHQDWLSGKEYKCKVSSKGLPSSIEKTISNATGQPREPQVYTLPPSQEEMTKNQVSLTCLVKGFYPSDIAVEWESNGQPENNYKTTPPVLDSDGSFFLYSRLTVDKSRWQEGNVFSCSVLHEALHNHYTQKSLSLSLGKIEGRMDQVSHRYPRIQSIKVQFTEYKKEKGFILTSQKEDEIMKVQNNSVIINCDGFYLISLKGYFSQEVNISLHYQKDEEPLFQLKKVRSVNSLMVASLTYKDKVYLNVTTDNTSLDDFHVNGGELILIHQNPGEFCVL
notes: also called hVSIG8-Fc-OX40L

Kd (hOX40-His [5]): 61 nM
koff (hOX40-His [5]): 0.00254 s⁻¹
kon (hOX40-His [5]): 41700 M⁻¹ s⁻¹
B3: commercially-available single-sided human Fc-OX40L (Fc fusion, UniProt P23510 51-183, looked up)
chain: QVSHRYPRIQSIKVQFTEYKKEKGFILTSQKEDEIMKVQNNSVIINCDGFYLISLKGYFSQEVNISLHYQKDEEPLFQLKKVRSVNSLMVASLTYKDKVYLNVTTDNTSLDDFHVNGGELILIHQNPGEFCVL
notes: Bought control; also called hFc-OX40L; recombinant control protein; not shown: Fc part of a bought control protein, not described
